Consider one molecule from US20120046329A1, “MODULATORS OF NOD1 AND NOD2 SIGNALING, METHODS OF IDENTIFYING MODULATORS OF NOD1 AND NOD2 SIGNALING, AND USES THEREOF” (Sanford-Burnham Medical Research Institute, priority 2010, published 2012).

The target in this assay is T1, XIAP/RIP2 interaction (Homo sapiens, UniProt P98170).
T1 construct: made in house; FLAG-RIP2: transfected HEK293T lysate
As to the kind of experiment: GST-XIAP pull-down of FLAG-RIP2 in vitro. It is filed as binding. As for the experimental part: (A) Schematic representation of GFP-XIAP mutants. (B) Transfected HEK293T cells expressing FLAG-RIP2 together with GFP-XIAPWT, GFPXIAPE219R, GFP-XIAPH223V, GFP-XIAPE219R/H223V or GFP-control were lysed and subjected to immunoprecipitation using anti-FLAG antibody. Immunoprecipitates were analyzed by SDS/PAGE/immunoblotting using anti-FLAG and anti-GFP antibodies. Protein binding was quantified by densitometry analysis, measuring the integrated density value expressed as arbitrary units of the GFP-XIAP bands. Values are expressed as mean±SD of three independent experiments. […] Beads were analyzed by immunoblotting using anti-FLAG-HRP, anti-XIAP/anti-GST or anti-SMAC antibodies as indicated. An aliquot of lysates was also directly analyzed by immunoblotting (“input”).
In another set of experiments, for immunoprecipitation (IP), cells were lysed in IP buffer [20 mM iris pH 7.5, 135 mM NaCl, 1 mM EDTA or 1 mM EGTA (for binding assays involving NODS), 0.5% Nonidet P-40, 10% glycerol, 10 mM NaF, 1 mM DTT, 2 mM Na3VO4, 20 μM leupeptin, 1 mM PMSF, 20 mM N-ethylmaleimide, 0.5 μM iodoacetic acid, 1× protease inhibitor mix (Roche Applied Science)]. […] After incubation overnight bound immune complexes were washed four times in IP buffer, boiled in 2× Laemmli buffer and analyzed by SDS/PAGE and immunoblotted using various antibodies as specifically indicated. […]

T1 sequence (P98170 whole entry): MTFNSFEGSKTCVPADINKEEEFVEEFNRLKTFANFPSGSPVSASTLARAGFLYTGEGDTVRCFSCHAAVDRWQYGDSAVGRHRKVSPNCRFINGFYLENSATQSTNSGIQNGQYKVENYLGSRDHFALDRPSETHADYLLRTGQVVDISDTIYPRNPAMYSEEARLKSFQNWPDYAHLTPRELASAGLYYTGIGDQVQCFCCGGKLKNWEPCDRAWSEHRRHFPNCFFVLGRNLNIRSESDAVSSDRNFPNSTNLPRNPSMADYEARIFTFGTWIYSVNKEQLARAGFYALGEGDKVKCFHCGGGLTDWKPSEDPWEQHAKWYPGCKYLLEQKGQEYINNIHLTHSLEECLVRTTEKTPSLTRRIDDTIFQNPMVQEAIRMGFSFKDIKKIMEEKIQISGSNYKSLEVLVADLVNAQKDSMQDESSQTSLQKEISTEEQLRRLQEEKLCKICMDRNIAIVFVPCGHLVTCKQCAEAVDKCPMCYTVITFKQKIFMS

B1: SMAC protein: recombinant SMAC protein, dimeric, binds BIR2 and BIR3 domains of XIAP (protein, UniProt Q9NR28 22-239, looked up)
Diablo IAP-binding …: LCVPVVANFKKRCFSELIRPWHKTVTIGFGVTLCAVPIAQKSEPHSLSSEALMRRAVSLVTDSTSTFLSQTTYALIEAITEYTKAVYTLTSLYRQYTSLLGKMNSEEEDEVWQVIIGARAEMTSKHQEYLKLETTWMTAVGLSEMAAEAAYQTGADQASITARNHIQLVKLQVEEVHQLSRKAETKLAEAQIEELRQKTQEEGEERAESEQEAYLRED
modifications: His6 tag
With B1, the “Effect on XIAP/RIP2 interaction in vitro” value was “concentration-dependent inhibition”.
